Data from patent US20140087995A1 (published 2014).
Substitutions are numbered along the chain they refer to. Each block holds one binder with its values, some of them ahead of it. Numbered stars: 1 amine (or outer) side, 2 acyl side, 3 side chain; on linkers, the order of the positions; unused ones are H or OH. Bridge positions count the residues as written; N and C are the ends. Side chains are listed from the residue outwards. Ends that are not written are not given here. * marks the point of attachment. C20 diacid = O=C(O)CCCCCCCCCCCCCCCCCCC(=O)*; γGlu = O=C(O)[C@H](CCC(=O)[*:2])N[*:1]; AEEA = NCCOCCOCC(=O)O

What was measured:
[1] = biological target: T1, human amylin receptor (amylin 3(a) receptor: human calcitonin receptor with RAMP-3) (human, UniProt P30988 25-474; O60896 24-148); experiment: SPA displacement of 125I-rat amylin, hAmylin 3(a) receptor membranes
T1 construct: whole, on cells; also called hAmylin-R; hAmylinR
T1 sequence (looked up) 1: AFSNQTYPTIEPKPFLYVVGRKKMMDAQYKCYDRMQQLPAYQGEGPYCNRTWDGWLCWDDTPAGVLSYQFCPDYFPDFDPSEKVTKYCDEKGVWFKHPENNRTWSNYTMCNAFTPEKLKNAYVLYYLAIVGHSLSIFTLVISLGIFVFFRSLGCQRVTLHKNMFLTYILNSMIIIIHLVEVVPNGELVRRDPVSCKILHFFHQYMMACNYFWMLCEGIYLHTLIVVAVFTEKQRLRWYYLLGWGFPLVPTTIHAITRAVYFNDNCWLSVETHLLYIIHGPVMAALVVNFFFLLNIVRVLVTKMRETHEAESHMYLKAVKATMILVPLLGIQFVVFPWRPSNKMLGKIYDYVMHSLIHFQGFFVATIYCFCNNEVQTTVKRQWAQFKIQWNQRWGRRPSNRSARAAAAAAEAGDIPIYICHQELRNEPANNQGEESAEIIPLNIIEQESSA
T1 sequence (looked up) 2: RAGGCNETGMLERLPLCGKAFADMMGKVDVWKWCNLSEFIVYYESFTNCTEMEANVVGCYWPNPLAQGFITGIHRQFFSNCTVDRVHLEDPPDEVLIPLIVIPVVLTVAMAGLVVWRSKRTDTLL
Experimental: The binding assay was performed using scintillation proximity assay (SPA) beads (RPNQ0001) from PerkinElmer and cell membranes from the Amylin 3(a)/CRE-luc cells (as described in Assay (II)) were used. Membranes were prepared in the following way; the cells were rinsed with PBS and incubated with Versene for approximately 5 min before harvesting. The cells were flushed with PBS and the cell-suspension was centrifuged for 5 min at 1000 rpm. Cells were homogenized (ultrathurrax) in a buffer containing 20 mM Na-HEPES and 10 mM EDTA (pH 7.4) and centrifuged at 20.000 rpm for 15 min. The resulting pellet was resuspended, homogenized and centrifuged (20.000 rpm, 15 min) in a buffer containing 20 mM Na-HEPES and 0.1 mM EDTA (pH 7.4, buffer 2). The resulting pellet was resuspended in buffer 2 and protein concentration was measured (BCA protein Assay, Pierce). The homogenate was kept cold during the whole procedure. The membranes were kept at −80° C. until use. The assay was performed in a 384 well Optiplate (PerkinElmer) in a total volume of 40 ul. Membranes were mixed with SPA beads. Final concentration of membranes 35 ng/μL final and SPA beads was 0.05 mg/well. Test-compounds were dissolved in DMSO and further diluted in assay buffer (50 mM Hepes, pH 7.4, 1 mM CaCl2, 5 mM MgCl₂, 0.1% OA and 0.02% Tween20). […] The final mixture was incubated with shaking at 400 rpm for 120 min at 25° C. prior to centrifugation (1500 rpm, 10 min). Samples were analyzed on TopCounter™ (Packard). The IC₅₀ was calculated using (one site binding competition analysis) GraphPad Prism5 as a measure of receptor affinity.

human amylin receptor = biological target: T2, human amylin receptor (human, UniProt P30988 25-474; O60896 24-148, limits assumed); experiment: SPA competition binding, displacement of 125I-rat amylin from membranes with human amylin 3(a) receptor (Assay V)
T2 construct: whole, on cells; Calcitonin receptor plus RAMP-3 gives the amylin 3(a) receptor; membranes of Amylin 3(a)/CRE-luc cells were used; also called hAmylin-R; hAmylinR
T2 sequence (looked up) 1: T1 sequence (looked up) 1
T2 sequence (looked up) 2: T1 sequence (looked up) 2
Procedure, shortened: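 SPA beads with BHK Amylin 3(a)/CRE-luc cell membranes (35 ng/μL final) in 50 mM Hepes pH 7.4, 1 mM CaCl2, 5 mM MgCl₂, 0.1% OA, 0.02% Tween20.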

B3: N^α1-[(4S)-4-carboxy-4-(19-carboxynonadecanoylamino)butanoyl]-[Arg17,Pro21,Pro27,Glu35]-h-amylin (peptide)
peptide: KCNTATCATQRLANFLRHSSPNFGAIPSSTNVGSETY
modifications: C20 diacid-gGlu on alpha amino group of N-terminal Lys 1; Cys2-Cys7 disulfide; C-terminal amide
notes: also called 23; compound 23
IC50 [1]: 0.871 nM

B5: N^ε1-[(4S)-4-carboxy-4-(19-carboxynonadecanoylamino)butanoyl]-[Arg17,Pro21,Pro27]-h-amylin (peptide)
peptide: K([γGlu-C20 diacid])CNTATCATQRLANFLRHSSPNFGAIPSSTNVGSNTY-NH2
modifications: disulfide 2-7; N-terminus assumed
SMILES: CC[C@H](C)[C@H](NC(=O)[C@H](C)NC(=O)CNC(=O)[C@H](Cc1ccccc1)NC(=O)[C@H](CC(N)=O)NC(=O)[C@@H]1CCCN1C(=O)[C@H](CO)NC(=O)[C@H](CO)NC(=O)[C@H](Cc1c[nH]cn1)NC(=O)[C@H](CCCNC(=N)N)NC(=O)[C@H](CC(C)C)NC(=O)[C@H](Cc1ccccc1)NC(=O)[C@H](CC(N)=O)NC(=O)[C@H](C)NC(=O)[C@H](CC(C)C)NC(=O)[C@H](CCCNC(=N)N)NC(=O)[C@H](CCC(N)=O)NC(=O)[C@@H](NC(=O)[C@H](C)NC(=O)[C@@H]1CSSC[C@H](NC(=O)[C@@H](N)CCCCNC(=O)CC[C@H](NC(=O)CCCCCCCCCCCCCCCCCCC(=O)O)C(=O)O)C(=O)N[C@@H](CC(N)=O)C(=O)N[C@@H]([C@@H](C)O)C(=O)N[C@@H](C)C(=O)N[C@@H]([C@@H](C)O)C(=O)N1)[C@@H](C)O)C(=O)N1CCC[C@H]1C(=O)N[C@@H](CO)C(=O)N[C@@H](CO)C(=O)N[C@H](C(=O)N[C@@H](CC(N)=O)C(=O)N[C@H](C(=O)NCC(=O)N[C@@H](CO)C(=O)N[C@@H](CC(N)=O)C(=O)N[C@H](C(=O)N[C@@H](Cc1ccc(O)cc1)C(N)=O)[C@@H](C)O)C(C)C)[C@@H](C)O
notes: also called 17R, 21P, 27P
IC50 (human amylin receptor): 0.443 nM

Continued by falling IC50 [1], values first:

IC50 [1]: 0.665 nM
B2: N^α1-[(4S)-4-carboxy-4-(19-carboxynonadecanoylamino)butanoyl]-[Arg17,Pro21,Pro27,Arg34]-h-amylin (peptide)
peptide: B3 peptide with S34R, E35N
modifications: C20 diacid-gGlu on alpha amino group of N-terminal Lys 1; Cys2-Cys7 disulfide; C-terminal amide
notes: also called 39; compound 39

IC50 [1]: 0.549 nM
B1: N^α1-[(4S)-4-carboxy-4-(19-carboxynonadecanoylamino)butanoyl]-[Arg17,Pro21,Pro27,His34]-h-amylin (peptide)
peptide: B3 peptide with S34H, E35N
modifications: C20 diacid-gGlu on alpha amino group of N-terminal Lys 1; Cys2-Cys7 disulfide; C-terminal amide
notes: also called 40; compound 40

IC50 [1]: 0.217 nM
B4: N^α1-[2-[2-[2-[[2-[2-[2-[[(4S)-4-carboxy-4-(19-carboxynonadecanoylamino)butanoyl]amino]ethoxy]ethoxy]acetyl]amino]ethoxy]ethoxy]acetyl]-[Glu14,Arg17,Pro21,Pro27 … (peptide)
peptide: {C20 diacid-γGlu-AEEA-AEEA}-KCNTATCATQRLAEFLRHSSPNFGAIPSSTNVGSNTP-NH2
modifications: disulfide 2-7
SMILES: CC[C@H](C)[C@H](NC(=O)[C@H](C)NC(=O)CNC(=O)[C@H](Cc1ccccc1)NC(=O)[C@H](CC(N)=O)NC(=O)[C@@H]1CCCN1C(=O)[C@H](CO)NC(=O)[C@H](CO)NC(=O)[C@H](Cc1c[nH]cn1)NC(=O)[C@H](CCCNC(=N)N)NC(=O)[C@H](CC(C)C)NC(=O)[C@H](Cc1ccccc1)NC(=O)[C@H](CCC(=O)O)NC(=O)[C@H](C)NC(=O)[C@H](CC(C)C)NC(=O)[C@H](CCCNC(=N)N)NC(=O)[C@H](CCC(N)=O)NC(=O)[C@@H](NC(=O)[C@H](C)NC(=O)[C@@H]1CSSC[C@H](NC(=O)[C@H](CCCCN)NC(=O)COCCOCCNC(=O)COCCOCCNC(=O)CC[C@H](NC(=O)CCCCCCCCCCCCCCCCCCC(=O)O)C(=O)O)C(=O)N[C@@H](CC(N)=O)C(=O)N[C@@H]([C@@H](C)O)C(=O)N[C@@H](C)C(=O)N[C@@H]([C@@H](C)O)C(=O)N1)[C@@H](C)O)C(=O)N1CCC[C@H]1C(=O)N[C@@H](CO)C(=O)N[C@@H](CO)C(=O)N[C@H](C(=O)N[C@@H](CC(N)=O)C(=O)N[C@H](C(=O)NCC(=O)N[C@@H](CO)C(=O)N[C@@H](CC(N)=O)C(=O)N[C@H](C(=O)N1CCC[C@H]1C(N)=O)[C@@H](C)O)C(C)C)[C@@H](C)O
notes: also called 20; compound 20
